Results reported in US20200040057A1 (IMMATICS BIOTECHNOLOGIES, published 2020).

What was measured:
[1] = target: HLA-B*07 (human); assay: UV peptide exchange ELISA; +++ = yield >50
[2] = target: HLA-B*07 (human); assay: UV peptide exchange ELISA; ++ = yield >20%

Binder	peptide exchange yield [1] [%]	peptide exchange yield [2] [%]
KPQSTISGL	50 to 75	–
HPSQESPTL	50 to 75	–
APVGGNVTSSF	50 to 75	–
KAHVRIEL	–	20 to 50
LPELPTTLTF	–	20 to 50
YGPYGSGSGW	–	20 to 50
ASKILETSL	–	20 to 50
VPSCGRSVEGL	50 to 75	–
FTVSSSSAM	–	20 to 50
APCNGNVAV	50 to 75	–
LPLGGLPLLI	50 to 75	–
VPVSHPVLTL	50 to 75	–
YVVKPLHPF	50 to 75	–
PEKARAFL	50 to 75	–
MPMQDIKMILKM	50 to 75	–
SPAKQFNIY	–	20 to 50
LPMSKRQEY	50 to 75	–
VPAHLVAA	–	20 to 50
QPRPSSEKI	50 to 75	–
RPEDGRPRL	50 to 75	–
APMAPGRSP	50 to 75	–
RPRYSIGL	50 to 75	–
IALMKLAGPL	–	20 to 50
APLPPPRAL	50 to 75	–
SPARALLLALA	50 to 75	–

Binder	peptide exchange yield [1] [%]	peptide exchange yield [2] [%]
SPFWIHQA	–	20 to 50
TDTPSTTPTTI	–	20 to 50
TSPLPPTV	50 to 75	–
KIIASGNHL	–	20 to 50
VPFVPRTSV	50 to 75	–
GPASDHPSL	50 to 75	–
MALSVLRLAL	–	20 to 50
HAAASFETL	–	20 to 50
REPIMKADML	–	20 to 50
SVPVATVEL	–	20 to 50
IPENRVVSY	–	20 to 50
SALPTTISF	50 to 75	–
RPFSREMDL	50 to 75	–
IPFADVKSF	–	20 to 50
QPISGNPVTL	50 to 75	–
RPGPSDPAA	50 to 75	–
RIRVTSEVL	50 to 75	–
RPSGTAGAALLA	–	20 to 50
KPRGPIDI	–	20 to 50
APAAPAAVPS	–	20 to 50
VIINNPISL	–	20 to 50
HVRPQTNCI	50 to 75	–
MPPLLIVAF	–	20 to 50
MPMQDIKMI	50 to 75	–
KPAAAGVKKVA	50 to 75	–

Binder	peptide exchange yield [1] [%]	peptide exchange yield [2] [%]
MARTGGMVVI	–	20 to 50
SPLIGDFPAF	–	20 to 50
FVPPSGPSNPM	–	20 to 50
IPVAIKEL	–	20 to 50
MPAVSGPGPLF	50 to 75	–
APEKARAFL	50 to 75	–
SVIGPNSRL	–	20 to 50
KEDNPSGHTYTL	50 to 75	–
LPPPRALTL	50 to 75	–
APFAPLHGGGSL	50 to 75	–
APRPRLLLL	50 to 75	–
VPAAPTKAL	50 to 75	–
MTLPATTLTL	–	20 to 50
MAGPAIHTAPM	–	20 to 50
SQRPPATSQA	–	20 to 50
LPLRAVNLNL	50 to 75	–
YPGFTKRL	50 to 75	–
KPRATWTLKL	50 to 75	–
FPHMATTAF	50 to 75	–
EPLSVTASY	–	20 to 50
RTKEEINEL	–	20 to 50
TRPWSGPYIL	50 to 75	–
GAYDKARYL	–	20 to 50
IPVSHPVLTF	–	20 to 50
